Measured values published in PMC9482650, “Quantitative fragmentomics allow affinity mapping of interactomes” (Nature Communications, 2022).

T1: RAPGEF6, Q8TEU7
T1 sequence (Q8TEU7 525-625, limits assumed, looked up): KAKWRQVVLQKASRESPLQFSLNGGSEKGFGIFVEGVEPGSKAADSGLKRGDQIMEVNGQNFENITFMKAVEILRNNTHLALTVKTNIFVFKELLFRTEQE

T2: CARD11, Q9BXL7
T2 sequence (Q9BXL7 662-765, limits assumed, looked up): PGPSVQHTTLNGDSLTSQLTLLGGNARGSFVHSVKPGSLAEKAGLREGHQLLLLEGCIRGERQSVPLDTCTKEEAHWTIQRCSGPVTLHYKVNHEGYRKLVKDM

T3: APBA2_2, Q99767
T3 sequence (Q99767 654-744, limits assumed, looked up): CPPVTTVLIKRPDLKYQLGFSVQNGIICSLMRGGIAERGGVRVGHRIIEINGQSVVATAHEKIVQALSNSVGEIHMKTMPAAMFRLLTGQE

T4: SNTG1, Q9NSN8
T4 sequence (Q9NSN8 52-150, limits assumed, looked up): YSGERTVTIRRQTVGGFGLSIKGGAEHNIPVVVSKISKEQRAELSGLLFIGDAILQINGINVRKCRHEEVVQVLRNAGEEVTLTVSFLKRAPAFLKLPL

T5: SNTB1, Q13884
T5 sequence (Q13884 107-205, limits assumed, looked up): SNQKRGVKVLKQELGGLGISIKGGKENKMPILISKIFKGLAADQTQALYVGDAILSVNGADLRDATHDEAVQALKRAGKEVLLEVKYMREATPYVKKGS

T6: DFNB31_3, Q9P202
T6 sequence (Q9P202 811-907, limits assumed, looked up): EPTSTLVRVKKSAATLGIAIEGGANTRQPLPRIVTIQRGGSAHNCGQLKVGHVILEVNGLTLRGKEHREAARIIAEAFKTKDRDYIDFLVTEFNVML

T7: TJP3_3, O95049
T7 sequence (O95049 375-456, limits assumed, looked up): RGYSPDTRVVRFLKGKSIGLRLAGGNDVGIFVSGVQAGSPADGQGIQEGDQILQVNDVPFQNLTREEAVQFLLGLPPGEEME

T8: DFNB31_1, Q9P202
T8 sequence (Q9P202 135-233, limits assumed, looked up): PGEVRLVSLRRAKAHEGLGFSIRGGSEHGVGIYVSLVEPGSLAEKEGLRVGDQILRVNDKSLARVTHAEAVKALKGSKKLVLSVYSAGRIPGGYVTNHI

T9: HTRA3, P83110
T9 sequence (P83110 354-453, limits assumed, looked up): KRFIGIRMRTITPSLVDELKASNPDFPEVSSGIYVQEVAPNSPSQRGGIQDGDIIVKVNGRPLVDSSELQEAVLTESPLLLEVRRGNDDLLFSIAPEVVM

T10: LNX2_2, Q8N448
T10 sequence (Q8N448 334-432, limits assumed, looked up): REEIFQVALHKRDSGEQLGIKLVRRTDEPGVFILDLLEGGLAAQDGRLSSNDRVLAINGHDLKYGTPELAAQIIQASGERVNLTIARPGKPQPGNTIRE

T11: DFNB31_2, Q9P202
T11 sequence (Q9P202 274-371, limits assumed, looked up): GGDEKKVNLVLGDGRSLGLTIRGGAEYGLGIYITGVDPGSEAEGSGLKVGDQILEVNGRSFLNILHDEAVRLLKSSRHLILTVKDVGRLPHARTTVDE

T12: MPDZ_12, O75970
T12 sequence (O75970 1857-1958, limits assumed, looked up): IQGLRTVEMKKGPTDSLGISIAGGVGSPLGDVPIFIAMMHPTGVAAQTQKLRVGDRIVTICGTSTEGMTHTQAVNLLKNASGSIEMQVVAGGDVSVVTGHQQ

T13: ARHGAP21, Q5T5U3
T13 sequence (Q5T5U3 45-169, limits assumed, looked up): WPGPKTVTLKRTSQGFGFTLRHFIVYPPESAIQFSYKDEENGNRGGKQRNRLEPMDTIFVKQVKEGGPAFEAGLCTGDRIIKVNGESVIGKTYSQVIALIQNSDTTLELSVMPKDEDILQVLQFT

B1: EFNB1, P52799 (peptide)
chain: QSPANIYYKV
B2: GHRHR, Q02643 (peptide)
chain: SAAKVLTSMC

The binders below were run against MAGI2_6, Q86UL8 (assay: holdup assay). Settings: plain residues with an end cap or a label only (N-terminal biotin on a linker: ado-ado).
Sequence of MAGI2_6, Q86UL8 (Q86UL8 1141-1229): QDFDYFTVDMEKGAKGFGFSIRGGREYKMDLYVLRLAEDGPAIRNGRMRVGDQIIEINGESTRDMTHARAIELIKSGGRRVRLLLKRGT
Set-up: key: below the threshold = too weak to quantify, mostly under pKd 3.1 to 4
For B1, the pKd was “below the threshold”. B2 was tested, and the pKd was “below the threshold”.

These binders were tested against NHERF4_2, Q86UT5 (assay: holdup assay). Settings: plain residues with an end cap or a label only (N-terminal biotin on a linker: ado-ado).
Sequence of NHERF4_2, Q86UT5 (Q86UT5 220-308): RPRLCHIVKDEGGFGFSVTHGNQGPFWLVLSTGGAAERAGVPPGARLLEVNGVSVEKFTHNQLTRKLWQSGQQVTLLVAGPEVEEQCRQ
Set-up: key: below the threshold = too weak to quantify, mostly under pKd 3.1 to 4
With B1 the pKd was “below the threshold”. B2 was tested, and the pKd was “below the threshold”.

The binders below were run against Inadl_10, Q8NI35 (assay: holdup assay). Settings: plain residues with an end cap or a label only (N-terminal biotin on a linker: ado-ado).
Sequence of Inadl_10, Q8NI35 (Q8NI35 1673-1763): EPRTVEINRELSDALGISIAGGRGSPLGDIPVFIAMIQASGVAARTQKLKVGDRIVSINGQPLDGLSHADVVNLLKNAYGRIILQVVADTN
Set-up: key: below the threshold = too weak to quantify, mostly under pKd 3.1 to 4
With B1 the pKd was “below the threshold”. In the case of B2, the pKd is reported as “below the threshold”.

These binders were tested against SNX27, Q96L92 (assay: holdup assay). Settings: plain residues with an end cap or a label only (N-terminal biotin on a linker: ado-ado).
Set-up: key: below the threshold = too weak to quantify, mostly under pKd 3.1 to 4
For B1, the pKd was “below the threshold”. B2 gave a pKd of 5.16.

These binders were tested against T1, RAPGEF6, Q8TEU7 (assay: holdup assay). Settings: plain residues with an end cap or a label only (N-terminal biotin on a linker: ado-ado).
Set-up: key: below the threshold = too weak to quantify, mostly under pKd 3.1 to 4
In the case of B1, the pKd is reported as “below the threshold”. In the case of B2, the pKd is reported as “below the threshold”.

These binders were tested against SCRIB_1, Q14160 (assay: holdup assay). Settings: plain residues with an end cap or a label only (N-terminal biotin on a linker: ado-ado).
Sequence of SCRIB_1, Q14160 (Q14160 718-814): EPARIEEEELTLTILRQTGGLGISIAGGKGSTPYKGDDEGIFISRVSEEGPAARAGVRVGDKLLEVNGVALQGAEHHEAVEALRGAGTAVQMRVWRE
Set-up: key: below the threshold = too weak to quantify, mostly under pKd 3.1 to 4
In the case of B1, the pKd is reported as “below the threshold”. Work on B2 yielded a pKd of 4.58.

The binders below were run against T2, CARD11, Q9BXL7 (assay: holdup assay). Settings: plain residues with an end cap or a label only (N-terminal biotin on a linker: ado-ado).
Set-up: key: below the threshold = too weak to quantify, mostly under pKd 3.1 to 4
For B1, the pKd was “below the threshold”. For B2, the pKd was “below the threshold”.

These binders were tested against T3, APBA2_2, Q99767 (assay: holdup assay). Settings: plain residues with an end cap or a label only (N-terminal biotin on a linker: ado-ado).
Set-up: key: below the threshold = too weak to quantify, mostly under pKd 3.1 to 4
For B1, the pKd was “below the threshold”. B2 was tested, and the pKd was “below the threshold”.

These binders were tested against T4, SNTG1, Q9NSN8 (assay: holdup assay). Settings: plain residues with an end cap or a label only (N-terminal biotin on a linker: ado-ado).
Set-up: key: below the threshold = too weak to quantify, mostly under pKd 3.1 to 4
For B1, the pKd was “below the threshold”. For B2, the pKd was “below the threshold”.

The binders below were run against T5, SNTB1, Q13884 (assay: holdup assay). Settings: plain residues with an end cap or a label only (N-terminal biotin on a linker: ado-ado).
Set-up: key: below the threshold = too weak to quantify, mostly under pKd 3.1 to 4
For B1, the pKd was “below the threshold”. B2 was tested, and the pKd was 3.53.

Each binder was assayed against T6, DFNB31_3, Q9P202 (assay: holdup assay). Settings: plain residues with an end cap or a label only (N-terminal biotin on a linker: ado-ado).
Set-up: key: below the threshold = too weak to quantify, mostly under pKd 3.1 to 4
For B1, the pKd was “below the threshold”. In the case of B2, the pKd is reported as 4.09.

Each binder was assayed against T7, TJP3_3, O95049 (assay: holdup assay). Settings: plain residues with an end cap or a label only (N-terminal biotin on a linker: ado-ado).
Set-up: key: below the threshold = too weak to quantify, mostly under pKd 3.1 to 4
For B1, the pKd was “below the threshold”. For B2, the pKd was “below the threshold”.

The binders below were run against T8, DFNB31_1, Q9P202 (assay: holdup assay). Settings: plain residues with an end cap or a label only (N-terminal biotin on a linker: ado-ado).
Set-up: key: below the threshold = too weak to quantify, mostly under pKd 3.1 to 4
In the case of B1, the pKd is reported as “below the threshold”. For B2, the pKd was “below the threshold”.

The binders below were run against PICK1, Q9NRD5 (assay: holdup assay). Settings: plain residues with an end cap or a label only (N-terminal biotin on a linker: ado-ado).
Sequence of PICK1, Q9NRD5 (Q9NRD5 17-115): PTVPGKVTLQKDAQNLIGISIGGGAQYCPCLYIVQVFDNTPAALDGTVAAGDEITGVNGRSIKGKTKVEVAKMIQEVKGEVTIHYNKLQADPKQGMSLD
Set-up: key: below the threshold = too weak to quantify, mostly under pKd 3.1 to 4
In the case of B1, the pKd is reported as “below the threshold”. B2 was tested, and the pKd was “below the threshold”.

These binders were tested against NOS1, P29475 (assay: holdup assay). Settings: plain residues with an end cap or a label only (N-terminal biotin on a linker: ado-ado).
Sequence of NOS1, P29475 (P29475 9-101): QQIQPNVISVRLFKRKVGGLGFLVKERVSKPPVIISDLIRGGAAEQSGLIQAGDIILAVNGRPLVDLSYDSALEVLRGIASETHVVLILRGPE
Set-up: key: below the threshold = too weak to quantify, mostly under pKd 3.1 to 4
B1 was tested, and the pKd was “below the threshold”. In the case of B2, the pKd is reported as “below the threshold”.

Each binder was assayed against T9, HTRA3, P83110 (assay: holdup assay). Settings: plain residues with an end cap or a label only (N-terminal biotin on a linker: ado-ado).
Set-up: key: below the threshold = too weak to quantify, mostly under pKd 3.1 to 4
In the case of B1, the pKd is reported as “below the threshold”. B2 gave a pKd of 4.24.

The binders below were run against GIPC2, Q8TF65 (assay: holdup assay). Settings: plain residues with an end cap or a label only (N-terminal biotin on a linker: ado-ado).
Sequence of GIPC2, Q8TF65 (Q8TF65 112-203): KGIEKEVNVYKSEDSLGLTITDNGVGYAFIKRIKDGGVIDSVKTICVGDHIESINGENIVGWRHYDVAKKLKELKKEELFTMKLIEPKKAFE
Set-up: key: below the threshold = too weak to quantify, mostly under pKd 3.1 to 4
For B1, the pKd was “below the threshold”. B2 was tested, and the pKd was “below the threshold”.

The binders below were run against T10, LNX2_2, Q8N448 (assay: holdup assay). Settings: plain residues with an end cap or a label only (N-terminal biotin on a linker: ado-ado).
Set-up: key: below the threshold = too weak to quantify, mostly under pKd 3.1 to 4
With B1 the pKd was 4.25. In the case of B2, the pKd is reported as “below the threshold”.

What follows are binders tested against T11, DFNB31_2, Q9P202 (assay: holdup assay). Settings: plain residues with an end cap or a label only (N-terminal biotin on a linker: ado-ado).
Set-up: key: below the threshold = too weak to quantify, mostly under pKd 3.1 to 4
With B1 the pKd was “below the threshold”. With B2 the pKd was “below the threshold”.

These binders were tested against FRMPD4, Q14CM0 (assay: holdup assay). Settings: plain residues with an end cap or a label only (N-terminal biotin on a linker: ado-ado).
Sequence of FRMPD4, Q14CM0 (Q14CM0 67-160): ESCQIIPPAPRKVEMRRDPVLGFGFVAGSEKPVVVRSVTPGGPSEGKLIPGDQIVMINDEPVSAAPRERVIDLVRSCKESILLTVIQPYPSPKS
Set-up: key: below the threshold = too weak to quantify, mostly under pKd 3.1 to 4
For B1, the pKd was 3.8. With B2 the pKd was “below the threshold”.

The binders below were run against T12, MPDZ_12, O75970 (assay: holdup assay). Settings: plain residues with an end cap or a label only (N-terminal biotin on a linker: ado-ado).
Set-up: key: below the threshold = too weak to quantify, mostly under pKd 3.1 to 4
In the case of B1, the pKd is reported as “below the threshold”. B2 was tested, and the pKd was “below the threshold”.

These binders were tested against T13, ARHGAP21, Q5T5U3 (assay: holdup assay). Settings: plain residues with an end cap or a label only (N-terminal biotin on a linker: ado-ado).
Set-up: key: below the threshold = too weak to quantify, mostly under pKd 3.1 to 4
B1 was tested, and the pKd was “below the threshold”. With B2 the pKd was “below the threshold”.

These binders were tested against IL16_3, Q14005 (assay: holdup assay). Settings: plain residues with an end cap or a label only (N-terminal biotin on a linker: ado-ado).
Sequence of IL16_3, Q14005 (Q14005 1107-1207): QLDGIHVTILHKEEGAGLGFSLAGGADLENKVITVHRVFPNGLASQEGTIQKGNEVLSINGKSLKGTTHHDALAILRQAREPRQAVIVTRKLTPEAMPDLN
Set-up: key: below the threshold = too weak to quantify, mostly under pKd 3.1 to 4
With B1 the pKd was “below the threshold”. With B2 the pKd was “below the threshold”.

These binders were tested against Inadl_4, Q8NI35 (assay: holdup assay). Settings: plain residues with an end cap or a label only (N-terminal biotin on a linker: ado-ado).
Sequence of Inadl_4, Q8NI35 (Q8NI35 547-651): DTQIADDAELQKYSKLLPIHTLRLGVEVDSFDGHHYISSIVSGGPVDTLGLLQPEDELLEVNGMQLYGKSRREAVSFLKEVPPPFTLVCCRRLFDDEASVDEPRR
Set-up: key: below the threshold = too weak to quantify, mostly under pKd 3.1 to 4
In the case of B1, the pKd is reported as “below the threshold”. With B2 the pKd was “below the threshold”.

These binders were tested against PTPN3, P26045 (assay: holdup assay). Settings: plain residues with an end cap or a label only (N-terminal biotin on a linker: ado-ado).
Sequence of PTPN3, P26045 (P26045 505-587): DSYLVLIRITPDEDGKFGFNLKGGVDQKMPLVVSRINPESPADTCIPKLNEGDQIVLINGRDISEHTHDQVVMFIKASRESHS
Set-up: key: below the threshold = too weak to quantify, mostly under pKd 3.1 to 4
With B1 the pKd was “below the threshold”. Work on B2 yielded a pKd of 3.71.
